Drawing on publication PMC10397247, this text covers interaction score for one molecule.

Holding throughout (assay): two-hybrid library CCmax;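 also: natural log of median RNA to DNA barcode read ratio; higher means stronger binding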
One experiment has as its target T1, 4H3162-AA.
T1 chain: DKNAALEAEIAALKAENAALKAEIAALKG

The target of the next experiment is T2, 4H32-AA.
T2 chain: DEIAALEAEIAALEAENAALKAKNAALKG
As to conditions: mean of both orientations.

For a further experiment, the target named is T3, 4H3378-AA.
T3 chain: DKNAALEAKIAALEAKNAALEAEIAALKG
As to conditions: mean of both orientations.

In another experiment the target is T4, 4H340-AA.
T4 chain: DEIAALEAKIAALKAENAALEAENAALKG
As to conditions: mean of both orientations.

The next experiment deals with T5, 4H3413-AA.
T5 chain: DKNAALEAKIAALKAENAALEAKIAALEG
As to conditions: mean of both orientations.

A further experiment concerns the target T6, 4H3588-AA.
T6 chain: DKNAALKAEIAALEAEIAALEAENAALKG
The conditions noted are these: mean of both orientations.

Another experiment has as its target T7, 4H3606-AA.
T7 chain: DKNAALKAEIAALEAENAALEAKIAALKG
As to conditions: mean of both orientations.

In another experiment the target is T8, 4H3631-AA.
T8 chain: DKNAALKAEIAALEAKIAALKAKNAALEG
The conditions noted are these: mean of both orientations.

The target of the next experiment is T9, 4H3697-AA.
T9 chain: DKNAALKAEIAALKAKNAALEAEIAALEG
As to conditions: mean of both orientations.

Another experiment concerns the target T10, 4H3718-AA.
T10 chain: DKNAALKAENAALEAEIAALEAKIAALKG
The conditions noted are these: mean of both orientations.

Another experiment addresses T11, 4H384-AA.
T11 chain: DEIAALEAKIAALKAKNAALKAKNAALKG
As to conditions: mean of both orientations.

The target in another experiment is T12, 4H3865-AA.
T12 chain: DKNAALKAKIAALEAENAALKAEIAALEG
As to conditions: mean of both orientations.

A further experiment deals with T13, 4H697-AA.
T13 chain: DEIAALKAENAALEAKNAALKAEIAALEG
The conditions noted are these: mean of both orientations.

The next experiment addresses T14, 4H982-AA.
T14 chain: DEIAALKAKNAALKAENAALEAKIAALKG
The conditions noted are these: mean of both orientations.

For the molecule DKNAALEAEIAALKAENAALKAEIAALKG [4H3162-AA], the interaction score is 0.942 in the experiment with 4H3162-AA; -1.53 with 4H32-AA; -1.59 with 4H3378-AA; -1.4 in the experiment with 4H340-AA; -1.04 with 4H3413-AA; -1.53 with 4H3588-AA. For the same molecule, the interaction score with 4H3606-AA is -0.0579; with 4H3631-AA, -1.62; with 4H3697-AA, -1.2; with 4H3718-AA, -1.43; with 4H384-AA, -1.58; in the experiment with 4H3865-AA, -0.607. The interaction score in the experiment with 4H697-AA was -1.39; with 4H982-AA, -1.88.
